Data from patent EP3623383A1 (Deutsches Krebsforschungszentrum, Stiftung des öffentlichen …, dated 2020).
Residue numbers refer to the chain shown, from its start.

T1: His tagged, recombinant FLT3 protein (Sino Biologicals) (human, UniProt P36888 27-541, limits assumed)
T1 construct: also called soluble recombinant FLT3 protein; not shown: His tag
T1 sequence (looked up): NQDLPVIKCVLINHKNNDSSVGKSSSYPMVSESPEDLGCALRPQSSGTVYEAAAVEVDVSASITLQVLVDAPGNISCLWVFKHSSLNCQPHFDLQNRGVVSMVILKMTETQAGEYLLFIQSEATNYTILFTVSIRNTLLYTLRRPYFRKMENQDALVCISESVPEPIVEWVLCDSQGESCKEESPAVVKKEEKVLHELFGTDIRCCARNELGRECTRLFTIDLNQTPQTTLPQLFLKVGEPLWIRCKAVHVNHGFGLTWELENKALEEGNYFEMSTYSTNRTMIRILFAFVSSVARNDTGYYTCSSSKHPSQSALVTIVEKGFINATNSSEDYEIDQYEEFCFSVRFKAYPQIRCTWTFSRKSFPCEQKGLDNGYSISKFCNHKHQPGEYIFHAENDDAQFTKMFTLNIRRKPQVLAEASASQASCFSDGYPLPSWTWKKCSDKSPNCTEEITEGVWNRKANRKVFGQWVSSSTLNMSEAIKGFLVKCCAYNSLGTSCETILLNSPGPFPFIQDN

T2: FLT3 as expressed on cells (NALM16 cells, FLT3+) (human, UniProt P36888 27-993)
T2 construct: whole, on cells; Endogenous FLT3 of a human leukemia cell line; also called Nalm16 cells expressing FLT3
T2 sequence (looked up): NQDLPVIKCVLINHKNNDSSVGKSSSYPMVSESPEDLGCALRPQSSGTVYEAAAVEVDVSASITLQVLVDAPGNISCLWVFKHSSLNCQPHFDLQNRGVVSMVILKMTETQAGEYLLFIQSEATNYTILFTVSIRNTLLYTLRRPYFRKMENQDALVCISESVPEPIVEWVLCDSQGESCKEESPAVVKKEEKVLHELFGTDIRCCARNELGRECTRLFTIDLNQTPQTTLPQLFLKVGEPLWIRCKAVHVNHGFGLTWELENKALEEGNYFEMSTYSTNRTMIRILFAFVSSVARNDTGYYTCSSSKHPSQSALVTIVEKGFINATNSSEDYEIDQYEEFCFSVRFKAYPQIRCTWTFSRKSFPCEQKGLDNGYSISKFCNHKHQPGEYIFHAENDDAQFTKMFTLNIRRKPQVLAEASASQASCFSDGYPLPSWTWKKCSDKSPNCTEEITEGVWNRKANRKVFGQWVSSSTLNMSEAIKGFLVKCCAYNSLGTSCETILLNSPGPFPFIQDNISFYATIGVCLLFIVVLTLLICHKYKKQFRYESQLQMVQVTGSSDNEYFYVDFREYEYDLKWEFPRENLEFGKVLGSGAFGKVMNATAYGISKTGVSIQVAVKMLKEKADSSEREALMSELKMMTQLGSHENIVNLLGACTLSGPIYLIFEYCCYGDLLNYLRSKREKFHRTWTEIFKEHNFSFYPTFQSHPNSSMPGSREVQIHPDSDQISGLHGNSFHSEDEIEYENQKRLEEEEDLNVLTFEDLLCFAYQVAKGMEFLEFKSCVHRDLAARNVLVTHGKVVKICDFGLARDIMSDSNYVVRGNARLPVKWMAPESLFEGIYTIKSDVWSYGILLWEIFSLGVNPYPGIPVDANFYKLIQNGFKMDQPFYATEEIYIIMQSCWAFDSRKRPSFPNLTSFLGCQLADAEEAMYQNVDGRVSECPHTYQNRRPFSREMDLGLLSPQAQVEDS

B1: V2-V6 (CC-2 variant 2, bispecific FLT3xCD3 IgGsc antibody) (bispecific antibody)
heavy: QVQLVQSGAEVKKPGGSLRLSCAASGYTFTSYWMHWVRQAPGQGLEWIGEIDPSDSYTDYAQKFKDRVTISRDTSKNTLYLQLSSLRAEDTAVYYCARAITTTPFDFWGQGTLVTVSSASTKGPSVFPLAPSSKSTSGGTAALGCLVKDYFPEPVTVSWNSGALTSGVHTFPAVLQSSGLYSLSSVVTVPSSSLGTQTYICNVNHKPSNTKVDKKVEPKSCDKTHTCPPCPAPPVAGPSVFLFPPKPKDTLMISRTPEVTCVVVGVSHEDPEVKFNWYVDGVEVHNAKTKPREEQYNSTYRVVSVLTVLHQDWLNGKEYKCKVSNKQLPSPIEKTISKAKGQPREPQVYTLPPSRDELTKNQVSLTCLVKGFYPSDIAVEWESNGQPENNYKTTPPVLDSDGSFFLYSKLTVDKSRWQQGNVFSCSVMHEALHNHYTQKSLSLSPGKSGDIQMTQSPSSLSASVGDRVTITCRASQDIRNYLNWYQQKPGKAPKLLIYYTSRLESGVPSRFSGSGSGTDYTLTISSLQPEDFATYYCQQGNTLPWTFGQGTKVEIKGGGGSGGGGSGGGGSEVQLVESGGGLVQPGGSLRLSCAASGYSFTGYTMNWVRQAPGKGLEWVALINPYKGVSTYNQKFKDRFTISVDKSKNTAYLQMNSLRAEDTAVYYCARSGYYGDSDWYFDVWGQGTLVTVSS
light: EIVMTQSPATLSVSPGERATLSCRASQSISNNLHWYQQKPGQAPRLLIKYASQSISGIPARFSGSGSGTEFTLTISSLQSEDFAVYFCQQSNTWPYTFGGGTKLEIKTVAAPSVFIFPPSDEQLKSGTASVVCLLNNFYPREAKVQWKVDNALQSGNSQESVTEQDSKDSTYSLSSTLTLSKADYEKHKVYACEVTHQGLSSPVTKSFNRGEC
notes: IgGsc format, Fc-attenuated; also called Version 2; Humanized 4G8 FLT3 variable region Variant 2 with V6 CD3 scFv
B2: V1-V6 (CC-2 variant 1, bispecific FLT3xCD3 IgGsc antibody) (bispecific antibody)
heavy: B1 heavy
light: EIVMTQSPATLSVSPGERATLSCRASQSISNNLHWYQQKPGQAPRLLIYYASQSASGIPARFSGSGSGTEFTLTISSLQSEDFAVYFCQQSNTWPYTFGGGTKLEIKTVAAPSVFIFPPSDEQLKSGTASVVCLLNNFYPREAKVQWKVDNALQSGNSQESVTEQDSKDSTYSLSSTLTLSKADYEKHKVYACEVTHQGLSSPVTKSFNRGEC
notes: also called Version 1; Humanized 4G8 FLT3 variable region Variant 1 with V6 CD3 scFv
B3: V5-V6 (CC-2 variant 5, bispecific FLT3xCD3 IgGsc antibody) (bispecific antibody)
heavy: B1 heavy with T58K, A61N
light: B1 light
notes: IgGsc format, Fc-attenuated; also called Version 5; Humanized 4G8 FLT3 variable region Variant 5 with V6 CD3 scFv
B4: V6-V8 (CC-2 variant, parental 4G8 FLT3 domain with UCHT1 CD3 scFv variant V8) (bispecific antibody, human IgG1, kappa)
heavy: QVQLQQPGAELVKPGASLKLSCKSSGYTFTSYWMHWVRQRPGHGLEWIGEIDPSDSYKDYNQKFKDKATLTVDRSSNTAYMHLSSLTSDDSAVYYCARAITTTPFDFWGQGTTLTVSSASTKGPSVFPLAPSSKSTSGGTAALGCLVKDYFPEPVTVSWNSGALTSGVHTFPAVLQSSGLYSLSSVVTVPSSSLGTQTYICNVNHKPSNTKVDKKVEPKSCDKTHTCPPCPAPPVAGPSVFLFPPKPKDTLMISRTPEVTCVVVGVSHEDPEVKFNWYVDGVEVHNAKTKPREEQYNSTYRVVSVLTVLHQDWLNGKEYKCKVSNKQLPSPIEKTISKAKGQPREPQVYTLPPSRDELTKNQVSLTCLVKGFYPSDIAVEWESNGQPENNYKTTPPVLDSDGSFFLYSKLTVDKSRWQQGNVFSCSVMHEALHNHYTQKSLSLSPGKSGDIQMTQSPSSLSASVGDRVTITCRASQDIRNYLNWYQQKPGKAPKLLIYYTSRLESGVPSRFSGSGSGTDYTLTISSLQPEDFATYYCQQGNTLPWTFGQGTKVEIKGGGGSGGGGSGGGGSEVQLVESGGGLVQPGGSLRLSCAASGYSFTGYTMNWVRQAPGKGLEWVALINPYKGVSTYNQKFKDRFTISVDDSKNTAYLQMNSLRAEDTAVYYCARSGYYGDSDWYFDVWGQGTLVTVSS
light: DIVLTQSPATLSVTPGDSVSLSCRASQSISNNLHWYQQKSHESPRLLIKYASQSISGIPSRFSGSGSGTDFTLSINSVETEDFGVYFCQQSNTWPYTFGGGTKLEIKRTVAAPSVFIFPPSDEQLKSGTASVVCLLNNFYPREAKVQWKVDNALQSGNSQESVTEQDSKDSTYSLSSTLTLSKADYEKHKVYACEVTHQGLSSPVTKSFNRGEC
notes: IgGsc format, Fc-attenuated
B5: V6-V9 (CC-2 variant, parental 4G8 FLT3 domain with UCHT1 CD3 scFv variant V9) (bispecific antibody, human IgG1, kappa)
heavy: QVQLQQPGAELVKPGASLKLSCKSSGYTFTSYWMHWVRQRPGHGLEWIGEIDPSDSYKDYNQKFKDKATLTVDRSSNTAYMHLSSLTSDDSAVYYCARAITTTPFDFWGQGTTLTVSSASTKGPSVFPLAPSSKSTSGGTAALGCLVKDYFPEPVTVSWNSGALTSGVHTFPAVLQSSGLYSLSSVVTVPSSSLGTQTYICNVNHKPSNTKVDKKVEPKSCDKTHTCPPCPAPPVAGPSVFLFPPKPKDTLMISRTPEVTCVVVGVSHEDPEVKFNWYVDGVEVHNAKTKPREEQYNSTYRVVSVLTVLHQDWLNGKEYKCKVSNKQLPSPIEKTISKAKGQPREPQVYTLPPSRDELTKNQVSLTCLVKGFYPSDIAVEWESNGQPENNYKTTPPVLDSDGSFFLYSKLTVDKSRWQQGNVFSCSVMHEALHNHYTQKSLSLSPGKSGEVQLVESGGGLVQPGGSLRLSCAASGYSFTGYTMNWVRQAPGKGLEWVALINPYKGVSTYNQKFKDRFTISVDKSKNTAYLQMNSLRAEDTAVYYCARSGYYGDSDWYFDVWGQGTLVTVSSGGGGSGGGGSGGGGSDIQMTQSPSSLSASVGDRVTITCRASQDIRNYLNWYQQKPGKAPKLLIYYTSRLESGVPSRFSGSGSGTDYTLTISSLQPEDFATYYCQQGNTLPWTFGQGTKVEIK
light: B4 light
notes: IgGsc format, Fc-attenuated
B6: V6-V7 (CC-2 variant, parental 4G8 FLT3 domain with UCHT1 CD3 scFv variant V7) (bispecific antibody, human IgG1, kappa)
heavy: B4 heavy with N632A, Q633D, K634S, D637G
light: B4 light
notes: IgGsc format, Fc-attenuated
B7: V6-V6 (CC-2, FLT3 (4G8) x CD3 (humanized UCHT1) bispecific IgGsc antibody) (bispecific antibody)
heavy: B4 heavy with D645K
light: B4 light
notes: Mouse 4G8 variable regions on human IgG1 constant regions, Fc-attenuated, C-terminal humanized UCHT1 scFv; also called mouse FLT3xCD3 bispecific antibody
B8: V3-V6 (CC-2 variant 3, bispecific FLT3xCD3 IgGsc antibody) (bispecific antibody)
heavy: QVQLVQSGAEVKKPGASVKVSCKASGYTFTSYWMHWVRQAPGQGLEWIGEIDPSDSYKDYNQKFKDRVTMTRDTSTSTVYMELSSLRSEDTAVYYCARAITTTPFDFWGQGTTVTVSSASTKGPSVFPLAPSSKSTSGGTAALGCLVKDYFPEPVTVSWNSGALTSGVHTFPAVLQSSGLYSLSSVVTVPSSSLGTQTYICNVNHKPSNTKVDKKVEPKSCDKTHTCPPCPAPPVAGPSVFLFPPKPKDTLMISRTPEVTCVVVGVSHEDPEVKFNWYVDGVEVHNAKTKPREEQYNSTYRVVSVLTVLHQDWLNGKEYKCKVSNKQLPSPIEKTISKAKGQPREPQVYTLPPSRDELTKNQVSLTCLVKGFYPSDIAVEWESNGQPENNYKTTPPVLDSDGSFFLYSKLTVDKSRWQQGNVFSCSVMHEALHNHYTQKSLSLSPGKSGDIQMTQSPSSLSASVGDRVTITCRASQDIRNYLNWYQQKPGKAPKLLIYYTSRLESGVPSRFSGSGSGTDYTLTISSLQPEDFATYYCQQGNTLPWTFGQGTKVEIKGGGGSGGGGSGGGGSEVQLVESGGGLVQPGGSLRLSCAASGYSFTGYTMNWVRQAPGKGLEWVALINPYKGVSTYNQKFKDRFTISVDKSKNTAYLQMNSLRAEDTAVYYCARSGYYGDSDWYFDVWGQGTLVTVSS
light: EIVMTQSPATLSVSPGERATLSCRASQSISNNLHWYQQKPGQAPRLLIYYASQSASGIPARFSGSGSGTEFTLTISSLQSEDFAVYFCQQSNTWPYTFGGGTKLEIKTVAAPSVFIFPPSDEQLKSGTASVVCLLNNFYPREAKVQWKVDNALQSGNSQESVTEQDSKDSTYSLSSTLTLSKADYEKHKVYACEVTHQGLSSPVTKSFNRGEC
notes: also called Version 3; Humanized 4G8 FLT3 variable region Variant 3 with V6 CD3 scFv
B9: V4-V6 (CC-2 variant 4, bispecific FLT3xCD3 IgGsc antibody) (bispecific antibody)
heavy: B8 heavy
light: B1 light
notes: IgGsc format, Fc-attenuated; also called Version 4; variant V4

How the values were obtained:
[1] = biological target: T1, His tagged, recombinant FLT3 protein …; test: SPR (Biacore X); antibody captured on protein A chip, His-tagged FLT3 in solution
[2] = biological target: T3, CD3 as expressed on Jurkat cells (CD3+) (human, UniProt P07766 23-207); test: flow cytometry on CD3+ Jurkat cells; value told of the CD3 binding part shared by V1 to V5
T3 construct: whole, on cells; CD3 is a complex of several chains; also called Jurkat cells expressing CD3

[3] = biological target: T2, FLT3 as expressed on cells (NALM16 …); test: flow cytometry on FLT3+ NALM16 cells; value told of the FLT3 binding part shared by V6 to V9

T3 sequence (P07766 23-207): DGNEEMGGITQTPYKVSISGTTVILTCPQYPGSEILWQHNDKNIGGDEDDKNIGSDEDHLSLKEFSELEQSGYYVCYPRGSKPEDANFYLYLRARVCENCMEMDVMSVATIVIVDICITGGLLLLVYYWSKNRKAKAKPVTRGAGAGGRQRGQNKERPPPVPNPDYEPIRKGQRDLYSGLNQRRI

Row | Binder | Kd [1] [nM] | koff [1] [s⁻¹] | kon [1] [M⁻¹ s⁻¹] | EC50 [2] [nM] | EC50 [3] [nM]
1 | B1 | 88000 | 0.0318 | 540 | ~10 | 
2 | B2 | 63000 | 0.022 | 489 | ~10 | 
3 | B3 | 160 | 0.00449 | 29600 | ~10 | 
4 | B4 |  |  |  |  | ~1
5 | B5 |  |  |  |  | ~1
6 | B6 |  |  |  |  | ~1
7 | B7 |  |  |  |  | ~1
8 | B8 | 87000 | 0.0233 | 276 | ~10 | 
9 | B9 | 480 | 0.00887 | 18800 | ~10 | 
